Assay results as given in patent publication US20240016892A1 (SHATTUCK LABS, published 2024).

T1: mouse CD47-Fc (mouse, UniProt Q61735 19-140, limits assumed)
T1 construct: not shown: Fc; not described
T1 sequence (looked up): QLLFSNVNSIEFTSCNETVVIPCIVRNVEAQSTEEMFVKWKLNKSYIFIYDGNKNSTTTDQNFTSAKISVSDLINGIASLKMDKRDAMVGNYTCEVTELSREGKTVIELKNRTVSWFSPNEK

T2: mouse 4-1BB-His (mouse, UniProt P20334 24-187)
T2 construct: not shown: His tag
T2 sequence (looked up): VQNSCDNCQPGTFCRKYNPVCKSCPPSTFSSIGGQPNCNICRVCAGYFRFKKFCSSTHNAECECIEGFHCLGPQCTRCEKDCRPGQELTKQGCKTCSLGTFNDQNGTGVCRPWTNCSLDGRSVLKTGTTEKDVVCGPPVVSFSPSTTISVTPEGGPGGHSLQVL

T3: mouse CD47-His (mouse, UniProt Q61735 19-140, limits assumed)
T3 construct: not shown: His tag
T3 sequence (looked up): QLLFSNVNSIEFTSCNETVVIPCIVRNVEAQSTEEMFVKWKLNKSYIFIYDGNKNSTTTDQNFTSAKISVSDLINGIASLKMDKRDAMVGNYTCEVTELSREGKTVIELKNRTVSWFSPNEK

T4: murine recombinant HVEM (mouse, UniProt Q80WM9 39-206)
T4 construct: also called mouse HVEM
T4 sequence (looked up): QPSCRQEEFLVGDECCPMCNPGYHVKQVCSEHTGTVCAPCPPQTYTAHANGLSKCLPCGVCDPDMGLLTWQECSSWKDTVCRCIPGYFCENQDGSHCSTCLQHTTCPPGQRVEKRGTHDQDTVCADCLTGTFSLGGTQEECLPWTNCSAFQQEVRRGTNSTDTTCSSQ


Key:
[1] = molecular target: T1, mouse CD47-Fc; experiment: MSD dual-binding sandwich: coat mCD47-Fc (Acro); detect m41BB-His (Acro); anti-His Biotin + Streptavidin Sulfo
Protocol: To understand whether the mouse SIRPα-Fc-4-1BBL chimeric protein can contemporaneously bind to mouse 4-1BB and CD47, mouse CD47-Fc was coated on plates and increasing amounts of the mSIRPα-Fc-4-1BBL, or PD-1-Fc-4-1BBL chimeric proteins were added to the plates for capture by the plate-bound mouse CD47-Fc. The PD-1-Fc-4-1BBL chimeric protein was used as a negative control. Then, mouse 4-1BB-His was added to the plate for capture by any chimeric protein, which was captured in turn by the mouse CD47-Fc protein. An anti-His-biotin and streptavidin-SULFO-TAG were used for detection. Binding was assayed using an electrochemiluminescence (ECL) readout.

[2] = molecular target: T2, mouse 4-1BB-His; experiment: MSD: coat m41BB-His (Acro); detection anti-mouse Sulfo (MSD)
Protocol: (§1) Mouse 4-1BB-His was coated on plates and increasing amounts of the mSIRPα-Fc-4-1BBL, or mSIRPα-Fc-CD40L chimeric proteins were added to the plates for capture by the plate-bound mouse 4-1BB-His. The mSIRPα-Fc-CD40L chimeric protein was used as a negative control for binding to mouse 4-1BB. Binding of the chimeric proteins to 4-1BB-His was detected using an anti-mouse-SULFO-TAG antibody. Binding was assayed using an electrochemiluminescence (ECL) readout.

[3] = molecular target: T3, mouse CD47-His; experiment: MSD: coat mCD47-His (Acro); detection anti-mouse Sulfo (MSD)
Protocol: as §1, with “CD47-His” for “4-1BB-His”, “mSIRPα-Fc-4-1BBL” for “mSIRPα-Fc-4-1BBL,”, “CD47-His.” for “4-1BB-His.”, “positive” for “negative”, “CD47.” for “4-1BB.”, “anti-mouse SULFO-TAG” for “anti-mouse-SULFO-TAG”

[4] = molecular target: T5, CHOK1/mLTβR (mouse, UniProt P50284); experiment: flow cytometry on CHOK1/mLTβR cells
T5 construct: expressed on the surface of stably transfected CHO-K1 cells; also called cell surface mouse LTβR on CHO-K1/mLTβR cells
T5 sequence (P50284 31-415 limits assumed): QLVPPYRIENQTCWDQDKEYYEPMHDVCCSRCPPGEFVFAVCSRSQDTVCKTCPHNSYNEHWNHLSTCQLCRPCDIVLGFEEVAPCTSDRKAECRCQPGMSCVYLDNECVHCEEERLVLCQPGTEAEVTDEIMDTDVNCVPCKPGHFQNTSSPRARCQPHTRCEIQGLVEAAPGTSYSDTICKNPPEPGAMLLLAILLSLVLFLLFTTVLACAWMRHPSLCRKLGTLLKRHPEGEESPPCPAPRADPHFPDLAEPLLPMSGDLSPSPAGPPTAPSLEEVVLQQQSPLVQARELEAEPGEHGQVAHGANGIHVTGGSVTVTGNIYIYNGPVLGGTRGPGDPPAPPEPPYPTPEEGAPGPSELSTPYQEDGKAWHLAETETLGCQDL

[5] = molecular target: T6, anti-H&L; experiment: ELISA: capture anti-H&L; detection anti-Fc-HRP
T6 construct: also called capture antibody of the Fc ELISA panel

[6] = molecular target: T7, murine recombinant LTβR (mouse, UniProt P50284 31-223); experiment: ELISA: capture mLTβR-His; detection anti-mLIGHT-Bio
T7 construct: also called mouse LTβR; printed LOUR
T7 sequence (P50284 31-223): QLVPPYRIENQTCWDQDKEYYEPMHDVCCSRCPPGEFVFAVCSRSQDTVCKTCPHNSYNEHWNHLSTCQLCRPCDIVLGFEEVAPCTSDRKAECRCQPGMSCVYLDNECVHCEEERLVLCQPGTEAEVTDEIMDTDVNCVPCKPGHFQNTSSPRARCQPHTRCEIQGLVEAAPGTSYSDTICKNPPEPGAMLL

[7] = molecular target: T8, murine recombinant PVR (mouse); experiment: ELISA: capture mCD115/PVR (so in the source); detection anti-Fc-HRP
T8 construct: also called mouse PVR

[8] = molecular target: T4, murine recombinant HVEM; experiment: ELISA on recombinant murine targets

| Binder | EC50 [1] [nM] | EC50 [2] [nM] | EC50 [3] [nM] | binding result [4] | EC50 (read off the curve) [5] [nM] | binding result [6] | EC50 (read off the curve) [7] [nM] | binding result [8] |
| --- | --- | --- | --- | --- | --- | --- | --- | --- |
| mouse SIRPα-Fc-4-1BBL chimeric protein (Fc fusion, also called mSIRPα-Fc-4-1BBL) KELKVTQPEKSVSVAAGDSTVLNCTLTSLLPVGPIKWYRGVGQSRLLIYSFTGEHFPRVTNVSDATKRNNMDFSIRISNVTPEDAGTYYCVKFQKGPSEPDTEIQSGGGTEVYVLAKPSPPEVSGPADRGIPDQKVNFTCKSHGFSPRNITLKWFKDGQELHHLETTVNPSGKNVSYNISSTVRVVLNSMDVHSKVICEVAHITLDRSPLRGIANLSNFIRVSPTVKVTQQSPTSMNQVNLTCRAERFYPEDLQLIWLENGNVSRNDTPKNLTKNTDGTYNYTSLFLVNSSAHREDVVFTCQVKHDQQPAITRNHTVLGLAHSSDQGSMQTFPGNNATHNWNVPRDCGCKPCICTVPEVSSVFIFPPKPKDVLTITLTPKVTCVVVDISKDDPEVQFSWFVDDVEVHTAQTQPREEQFNSTFRSVSELPIMHQDWLNGKEFKCRVNSAAFPAPIEKTISKTKGRPKAPQVYTIPPPKEQMAKDKVSLTCMITDFFPEDITVEWQWNGQPAENYKNTQPIMDTDGSYFVYSKLNVQKSNWEAGNTFTCSVLHEGLHNHHTEKSLSHSPGIIEGRMDRTEPRPALTITTSPNLGTRENNADQVTPVSHIGCPNTTQQGSPVFAKLLAKNQASLCNTTLNWHSQDGAGSSYLSQGLRYEEDKKELVVDSPGLYYVFLELKLSPTFTNTGHKVQGWVSLVLQAKPQVDDFDNLALTVELFPCSMENKLVDRSWSQLLLLKAGHRLSVGLRAYLHGAQDAYRDWELSYPNTTSFGLFLVKPDNPWE | 22.4 | 0.674 | 0.609 | – | – | – | – | – |
| mouse TIGIT-Fc-LIGHT chimeric protein (Fc fusion, also called mTIGIT-Fc-LIGHT; murine TIGIT-Fc-LIGHT chimeric protein) TIDTKRNISAEEGGSVILQCHFSSDTAEVTQVDWKQQDQLLAIYSVDLGWHVASVFSDRVVPGPSLGLTFQSLTMNDTGEYFCTYHTYPGGIYKGRIFLKVQESSDDRNGLAQFQTAPLGVPRDCGCKPCICTVPEVSSVFIFPPKPKDVLTITLTPKVTCVVVDISKDDPEVQFSWFVDDVEVHTAQTQPREEQFNSTFRSVSELPIMHQDWLNGKEFKCRVNSAAFPAPIEKTISKTKGRPKAPQVYTIPPPKEQMAKDKVSLTCMITDFFPEDITVEWQWNGQPAENYKNTQPIMDTDGSYFVYSKLNVQKSNWEAGNTFTCSVLHEGLHNHHTEKSLSHSPGKIEGRMDLHQRLGDIVAHLPDGGKGSWEKLIQDQRSHQANPAAHLTGANASLIGIGGPLLWETRLGLAFLRGLTYHDGALVTMEPGYYYVYSKVQLSGVGCPQGLANGLPITHGLYKRTSRYPKELELLVSRRSPCGRANSSRVWWDSSFLGGVVHLEAGEEVVVRVPGNRLVRPRDGTRSYFGAFMV | – | – | – | binds | ~4 | binds | ~5 | binds |
